Measurements reported in article PMC2939893, “Mammalian Otolin: A Multimeric Glycoprotein Specific to the Inner Ear that Interacts with Otoconial Matrix Protein Otoconin-90 and Cerebellin-1” (PLoS ONE, 2010).

Target: the molecule itself
Test: SEC; supernatant (500 µl) of transfected HEK293T cells with FLAG-tagged Otolin on Superdex 200 HR 10/30 in PBS; fractions immunoblotted with anti-FLAG M2

B1: C-terminal FLAG-tagged Otolin (natural protein, mouse, UniProt Q4ZJM7 24-482, looked up)
chain: KTTPYTKFTKKSEGKEMLKGLKPSSGFFLDGEETVHTETAAMAEPTTGSPALAMAESTAGPSASATTRLLPFESFSLDTTGFVLNCCHCCSFVTGQKGEPGKMGKQGPKGETGDTGSPGHPGTTGPQGPKGQKGEKGLKGDRGDQGAGGIPGYPGKPGEQGALGPKGDKGTIGPAGTKGQKGSKGELCGNGTKGEKGDPGASGAHGFIGEPGAKGEKGGVGEKGYRGDLGERGEKGQKGEKGMEGEKGSRGDVGSEGKRGSDGLPGLRGDSGPKGEKGEIGSPGFTGPAGPKGELGSKGVRGPTGKKGSRGVKGSKGEATQVPQSAFSALLSKPFPPPNVPIKFDKILSNDQGDYSPVTGKFNCSVPGTYIFSYHVTVRGRPARISLVARNRKQFKSRETLYGQQVDQASLLLILKLSAGDQVWLEVSKDWNGLYVGPEDDSIFSGFLLYPEETFSKSP
modifications: hydroxyproline at Pro-141, 144, 174, 177, 180, 222, 234, 288 and 306; Lys-189 and Lys-315 hydroxylated and glycosylated with a glucosyl-galactosyl group (mass spectrometry of purified recombinant Otolin)
notes: Otolin, mouse, GenBank DQ002405; entire coding region (482 amino acids, own signal peptide) cloned and expressed; the secreted protein was collected from the medium; also called otolin-FLAG; recombinant Otolin; source: HEK293T, transiently transfected; not shown: FLAG, C-terminal, kept
  binding result: binds
